Read-outs that look alike come from different tables or passages of the source.
How the values were obtained:
[1] = target: PfBDP1-BRD (residues 303–488 or 333–456), bromodomain of P. falciparum Bromodomain Protein 1, as used in ITC (P. falciparum) (UniProt Q8IJ72); assay: ITC; histone peptide (2.5–5.0 mM) in the syringe, PfBDP1-BRD (303–488 or 333–456; 100–200 μM) in the sample cell; 5°C; 20 mM sodium phosphate pH 7.5, 150 mM NaCl, 1 mM TCEP; 1:1 binding model, single set of identical sites
[2] = target: PfBDP1-BRD (residues 303–488 or 333–456), bromodomain of P. falciparum Bromodomain Protein 1, as used in ITC (P. falciparum) (UniProt Q8IJ72); assay: as above; remark: listed apart in the source

H4K5acK8acK12acK16ac histone peptide (1–24), tetra-acetylated histone H4
Kd [1]: 173 µM
Kd [2]: 117 µM

Source: article PMC10093686, “Structural insights into acetylated histone ligand recognition by the BDP1 bromodomain of Plasmodium falciparum” (International journal of biological macromolecules, 2022)
